Experimental data taken from patent US9618524B2, “Method, composition, isolation and identification of a plaque particle and related biomarker” (Plaxgen Inc., priority 2012, dated 2017).

B1: Isoform 2 of Glycogen synthase kinase-3 (protein)
chain: MSGRPRTTSFAESCKPVQQPSAFGSMKVSRDKDGSKVTTVVATPGQGPDRPQEVSYTDTKVIGNGSFGVVYQAKLCDSGELVAIKKVLQDKRFKNRELQIMRKLDHCNIVRLRYFFYSSGEKKDEVYLNLVLDYVPETVYRVARHYSRAKQTLPVIYVKLYMYQLFRSLAYIHSFGICHRDIKPQNLLLDPDTAVLKLCDFGSAKQLVRGEPNVSYICSRYYRAPELIFGATDYTSSIDVWSAGCVLAELLLGQPIFPGDSGVDQLVEIIKVLGTPTREQIREMNPNYTEFKFPQIKAHPWTKDSSGTGHFTSGVRVFRPRTPPEAIALCSRLLEYTPTARLTPLEACAHSFFDELRDPNVKLPNGRDTPALFNFTTQELSSNPPLATILIPPHARIQAAASTPTNATAASDANTGDRGQTNNAASASASNST
B2: Protein-glutamine gamma-glutamyltransferase E (protein)
chain: AALGVQSINWQTAFNRQAHHTDKFSSQELILRRGQNFQVLMIMNKGLGSNERLEFIVSTGPYPSESAMTKAVFPLSNGSSGGWSAVLQASNGNTLTISISSPASAPIGRYTMALQIFSQGGISSVKLGTFILLFNPWLNVDSVFMGNHAEREEYVQEDAGIIFVGSTNRIGMIGWNFGQFEEDILSICLSILDRSLNFRRDAATDVASRNDPKYVGRVLSAMINSNDDNGVLAGNWSGTYTGGRDPRSWNGSVEILKNWKKSGFSPVRYGQCWVFAGTLNTALRSLGIPSRVITNFNSAHDTDRNLSVDVYYDPMGNPLDKGSDSVWNFHVWNEGWFVRSDLGPSYGGWQVLDATPQERSQGVFQCGPASVIGVREGDVQLNFDMPFIFAEVNADRITWLYDNTTGKQWKNSVNSHTIGRYISTKAVGSNARMDVTDKYKYPEGSDQERQVFQKALGKLKPNTPFAATSSMGLETEEQEPSIIGKLKVAGMLAVGKEVNLVLLLKNLSRDTKTVTVNMTAWTIIYNGTLVHEVWKDSATMSLDPEEEAEHPIKISYAQYEKYLKSDNMIRITAVCKVPDESEVVVERDIILDNPTLTLEVLNEARVRKPVNVQMLFSNPLDEPVRDCVLMVEGSGLLLGNLKIDVPTLGPKEGSRVRFDILPSRSGTKQLLADFSCNKFPAIKAMLSIDVAE
B3: Pregnancy zone protein (protein)
chain: TEPQYMVLVPSLLHTEAPKKGCVLLSHLNETVTVSASLESGRENRSLFTDLVAEKDLFHCVSFTLPRISASSEVAFLSIQIKGPTQDFRKRNTVLVLNTQSLVFVQTDKPMYKPGQTVRFRVVSVDENFRPRNELIPLIYLENPRRNRIAQWQSLKLEAGINQLSFPLSSEPIQGSYRVVVQTESGGRIQHPFTVEEFVLPKFEVKVQVPKIISIMDEKVNITVCGEYTYGKPVPGLATVSLCRKLSRVLNCDKQEVCEEFSQQLNSNGCITQQVHTKMLQITNTGFEMKLRVEARIREEGTDLEVTANRISEITNIVSKLKFVKVDSHFRQGIPFFAQVLLVDGKGVPIPNKLFFISVNDANYYSNATTNEQGLAQFSINTTSISVNKLFVRVFTVHPNLCFHYSWVAEDHQGAQHTANRVFSLSGSYIHLEPVAGTLPCGHTETITAHYTLNRQAMGELSELSFHYLIMAKGVIVRSGTHTLPVESGDMKGSFALSFPVESDVAPIARMFIFAILPDGEVVGDSEKFEIENCLANKVDLSFSPAQSPPASHAHLQVAAAPQSLCALRAVDQSVLLMKPEAELSVSSVYNLLTVKDLTNFPDNVDQQEEEQGHCPRPFFIHNGAIYVPLSSNEADIYSFLKGMGLKVFTNSKIRKPKSCSVIPSVSAGAVGQGYYGAGLGVVERPYVPQLGTYNVIPLNNEQSSGPVPETVRSYFPETWIWELVAVNSSGVAEVGVTVPDTITEWKAGAFCLSEDAGLGISSTASLRAFQPFFVELTMPYSVIRGEVFTLKATVLNYLPKCIRVSVQLKASPAFLASQNTKGEESYCICGNERQTLSWTVTPKTLGNVNFSVSAEAMQSLELCGNEVVEVPEIKRKDTVIKTLLVEAEGIEQEKTFSSMTCASGANVSEQLSLKLPSNVVKESARASFSVLGDILGSAMQNIQNLLQMPYGCGEQNMVLFAPNIYVLNYLNETQQLTQEIKAKAVGYLITGYQRQLNYKHQDGSYSTFGERYGRNQGNTWLTAFVLKTFAQARSYIFIDEAHITQSLTWLSQMQKDNGCFRSSGSLLNNAIKGGVEDEATLSAYVTIALLEIPLPVTNPIVRNALFCLESAWNVAKEGTHGSHVYTKALLAYAFSLLGKQNQNREILNSLDKEAVKEDNLVHWERPQRPKAPVGHLYQTQAPSAEVEMTSYVLLAYLTAQPAPTSGDLTSATNIVKWIMKQQNAQGGFSSTQDTVVALHALSRYGAATFTRTEKTAQVTVQDSQTFSTNFQVDNNNLLLLQQISLPELPGEYVITVTGERCVYLQTSMKYNILPEKEDSPFALKVQTVPQTCDGHKAHTSFQISLTISYTGNRPASNMVIVDVKMVSGFIPLKPTVKMLERSSSVSRTEVSNNHVLIYVEQVTNQTLSFSFMVLQDIPVGDLKPAIVKVYDYYETDESVVAEYIAPCSTDTEHGNV
B4: Cluster of Interleukin enhancer-binding factor 3 (protein, UniProt Q12906 1-894, looked up)
Interleukin enhancer-binding …: MRPMRIFVNDDRHVMAKHSSVYPTQEELEAVQNMVSHTERALKAVSDWIDEQEKGSSEQAESDNMDVPPEDDSKEGAGEQKTEHMTRTLRGVMRVGLVAKGLLLKGDLDLELVLLCKEKPTTALLDKVADNLAIQLAAVTEDKYEILQSVDDAAIVIKNTKEPPLSLTIHLTSPVVREEMEKVLAGETLSVNDPPDVLDRQKCLAALASLRHAKWFQARANGLKSCVIVIRVLRDLCTRVPTWGPLRGWPLELLCEKSIGTANRPMGAGEALRRVLECLASGIVMPDGSGIYDPCEKEATDAIGHLDRQQREDITQSAQHALRLAAFGQLHKVLGMDPLPSKMPKKPKNENPVDYTVQIPPSTTYAITPMKRPMEEDGEEKSPSKKKKKIQKKEEKAEPPQAMNALMRLNQLKPGLQYKLVSQTGPVHAPIFTMSVEVDGNSFEASGPSKKTAKLHVAVKVLQDMGLPTGAEGRDSSKGEDSAEETEAKPAVVAPAPVVEAVSTPSAAFPSDATAEQGPILTKHGKNPVMELNEKRRGLKYELISETGGSHDKRFVMEVEVDGQKFQGAGSNKKVAKAYAALAALEKLFPDTPLALDANKKKRAPVPVRGGPKFAAKPHNPGFGMGGPMHNEVPPPPNLRGRGRGGSIRGRGRGRGFGGANHGGYMNAGAGYGSYGYGGNSATAGYSQFYSNGGHSGNASGGGGGGGGGSSGYGSYYQGDNYNSPVPPKHAGKKQPHGGQQKPSYGSGYQSHQGQQQSYNQSPYSNYGPPQGKQKGYNHGQGSYSYSNSYNSPGGGGGSDYNYESKFNYSGSGGRSGGNSYGSGGASYNPGSHGGYGGGSGGGSSYQGKQGGYSQSNYNSPGSGQNYSGPPSSYQSSQGGYGRNADHSMNYQYR

What follows are molecules tested against T1, Abeta-42 plaque particles (Homo sapiens, UniProt P05067) (assay: Mass spectroscopy proteomics, semi-quantitative binding affinity of serum proteins (plaqueproteome, Table 2)). Settings: higher number = stronger affinity.
T1 construct: Abeta 1-42
Outline: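 AD patient serum or plasma (50% in PBS) was incubated with Abeta-42 aggregates (30 μg) for 1 h at 37 °C, then stained with Thioflavin S for 30 min. Labeled particles were FACS-sorted, trypsin/Lys-C digested overnight and analyzed by MS/MS. Sequest searched human UniProt; Scaffold/Protein Prophet validated the identifications.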

| Molecule | Semi-quantitative analysis of proteins binding to different plaque particles: Abeta-42 |
| --- | --- |
| B1 | 4 |
| B2 | 2 |
| B3 | 4 |
| B4 | 4 |

What follows are molecules tested on High Density cholesterol (Chl Large) plaque particles in the same assay as above. Settings: higher number = stronger affinity.
Design: species or system human
Outline: (§1)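 Proteins bound to flow-sorted cholesterol plaque particles (large/high-density or small/low-density gates) were identified by LC-MS/MS after trypsin digestion. Particles were formed from 50% atherosclerotic serum or plasma with 30 μg cholesterol aggregates, 1 h, 37 °C. Sequest human database search; Scaffold validation.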

| Molecule | Semi-quantitative analysis of proteins binding to different plaque particles: Chl Large |
| --- | --- |
| B1 | 0 |
| B2 | 0 |
| B3 | 0 |
| B4 | 0 |

Each molecule was assayed on Low density cholesterol (Chl small) plaque particles in the same assay as above. Settings: higher number = stronger affinity.
Design: species or system human
Outline: as §1

| Molecule | Semi-quantitative analysis of proteins binding to different plaque particles: Chl small |
| --- | --- |
| B1 | 0 |
| B2 | 0 |
| B3 | 2 |
| B4 | 0 |

What follows are molecules tested against T2, alpha-synuclein plaque particles (Homo sapiens, UniProt P37840) in the same assay as above. Settings: higher number = stronger affinity.
T2 construct: 140 amino acids polypeptide
Outline: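 AD-subject plasma or serum (800 μL of 50%) mixed with 30 μg preformed alpha-synuclein aggregates for 1 h at 37 °C; Thioflavin S-positive particles isolated by flow sorting. After reduction, acrylamide alkylation and overnight tryptic digestion, serum proteins identified by MS/MS with Sequest and Scaffold.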

| Molecule | Semi-quantitative analysis of proteins binding to different plaque particles: Synuclein |
| --- | --- |
| B1 | 0 |
| B2 | 0 |
| B3 | 0 |
| B4 | 0 |

What follows are molecules tested on Tau plaque particles in the same assay as above. Settings: higher number = stronger affinity.
Design: species or system human
Outline: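 Synthetic Tau-74 and Tau-275 peptides (1 mg/mL PBS, 37° C, 2 h) aggregated; 30 μg aggregates incubated with 50% serum/plasma 1 h at 37° C, stained with Thioflavin S, and plaque particles sorted by flow cytometry. Bound proteins trypsin-digested and identified by MS/MS against human UniProt.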

| Molecule | Semi-quantitative analysis of proteins binding to different plaque particles: Tau |
| --- | --- |
| B1 | 0 |
| B2 | 0 |
| B3 | 0 |
| B4 | 0 |
